Results on 1 molecule are retold here after patent publication US6673357B2, “Alkaloid glycoside for use as a medicament” (University of Southampton, priority 1996, dated 2004).

The subject of the data set is ovalbumin-transfected EL4 (C57BL/6, H-2b thymoma) monoclonal murine cell line. As to the kind of experiment: Cytotoxicity assay: T lymphocyte-mediated 51Cr release with spleen cells from immunised mice. It counts as cell-based. Particulars: means of triplicate determinations. As for the experimental part:
Cytotoxic activity mediated by T lymphocytes was measured using the ovalbumin-transfected EL4 (C57BL/6, H-2b thymoma) monoclonal murine cell line as a target. Untransfected EL4 cells were used as negative controls. Spleen cells (3×10^7) from normal or immunised mice primed 14 days earlier were incubated with 1.5×10^6 irradiated (200 Gy) 15-12 cells (gp160 transfectants) or 3T3 cells (which served as controls) for 5 days. Target cells (1×10^6) were labelled with 100 μCi ^51Cr. Target cells were washed three times in RPMI 1640 medium, diluted to 2×10^5 cells/ml, and 50μ (10^4) of target cells added to each microtitre well containing antigen or peptide (10 μM) and preincubated for 30 min. Effector cells were resuspended in complete mdium (CM) to yield a range of effector: target (E:T) ratios. Target cells (10^4) were then incubated at different E:T ratios in a total volume of 200 μl of 10% CM for an additional 4 h. Supernatants (100 μl) were collected and counted for ^51Cr release. Spontaneous release and maximal release values were determined by incubating target cells in 10% CM alone or 0.1% Triton X-100. Percent Cytotoxicity was calculated using the formula: […]
where ER is experimental release, SR is spontaneous release and […] release. The results shown are shown in Table 4 and represent the means of triplicate determinations.

B1: antigen only: antigen (ovalbumin, OVA) given without adjuvants (protein, UniProt P01012 2-386, looked up)
Ovalbumin: GSIGAASMEFCFDVFKELKVHHANENIFYCPIAIMSALAMVYLGAKDSTRTQINKVVRFDKLPGFGDSIEAQCGTSVNVHSSLRDILNQITKPNDVYSFSLASRLYAEERYPILPEYLQCVKELYRGGLEPINFQTAADQARELINSWVESQTNGIIRNVLQPSSVDSQTAMVLVNAIVFKGLWEKAFKDEDTQAMPFRVTEQESKPVQMMYQIGLFRVASMASEKMKILELPFASGTMSMLVLLPDEVSGLEQLESIINFEKLTEWTSSNVMEERKIKVYLPRMKMEEKYNLTSVLMAMGITDVFSSSANLSGISSAESLKISQAVHAAHAEINEAGREVVGSAEAGVDAASVSEEFRADHPFLFCIKHIATNAVLFFGRCVSP
With B1, the “% of Cytotoxic lysis” value runs as follows: (E:T ratio 25:1) 19%; (E:T ratio 50:1) 30%; (E:T ratio 100:1) 45%.
